Values quoted from earlier work, collected in article PMC5837126.

Target: IL-2Rβγc (intermediate-affinity IL-2R) (Homo sapiens) (UniProt P14784)
UniProt P14784, sequence (P14784 27-240, chain 1 of 2): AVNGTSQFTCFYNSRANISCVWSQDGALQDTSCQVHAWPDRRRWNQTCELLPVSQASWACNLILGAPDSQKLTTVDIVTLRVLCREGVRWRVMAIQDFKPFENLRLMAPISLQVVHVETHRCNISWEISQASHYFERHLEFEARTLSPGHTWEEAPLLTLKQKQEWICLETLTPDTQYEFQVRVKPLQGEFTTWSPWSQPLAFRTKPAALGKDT
UniProt P14784, sequence (P31785 23-262, chain 2 of 2, further chain): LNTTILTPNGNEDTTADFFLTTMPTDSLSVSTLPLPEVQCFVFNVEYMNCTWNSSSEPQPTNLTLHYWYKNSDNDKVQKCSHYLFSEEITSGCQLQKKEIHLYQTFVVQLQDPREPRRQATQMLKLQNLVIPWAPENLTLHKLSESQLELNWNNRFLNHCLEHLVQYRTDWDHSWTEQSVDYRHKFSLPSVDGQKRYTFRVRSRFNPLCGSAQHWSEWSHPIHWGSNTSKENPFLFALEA

IL-2 (from UniProt P60568)
Kd: 1 nM
